Laboratory results reported in article PMC5908803, “Cryo-EM structure of the RC-LH core complex from an early branching photosynthetic prokaryote” (Nature Communications, 2018).

Biological target: the molecule itself
Assay: cryo-EM structure; single-particle cryo-EM of the rcRC-LH complex purified whole from native membranes, 3 mg/mL in 0.02% DDM, 150 mM NaCl, 50 mM Tris-HCl pH 8.0; 4.1 Å (subunit X helix seen after low-pass filter to 6 Å)

B1: LHαβ heterodimer of Roseiflexus castenholzii (complex)
chain 1: MKDRPFEFRTSVVVSTLLGLVMALLIHFVVLSSGAFNWLRAP
chain 2: MTDKPQNDLVPDQWKPLFNNAQWLVHDIVVKTIYGGLIIAVIAHVLCWAWTPWIR
notes: α subunit of the LH antenna, Roseiflexus castenholzii, encoded by puf A; β subunit of the LH antenna, Roseiflexus castenholzii, encoded by puf B; Each heterodimer holds two B880, one B800 and one keto-γ-carotene; 15 of them form the open elliptical LH ring; also called LHαβ subunit
  stoichiometry N: 15
